Experimental data published in US20230059181A1 (EPSILOGEN, published 2023).

Key:
[1] = target: T1, Human FcRn (neonatal Fc receptor) (human, UniProt P55899 24-297; P61769 21-119); assay: SPR steady state, pH 6.0, FcRn amine-coupled, antibody as analyte; pH 6.0; 31.25 nM to 2000 nM antibody over hFcRn on the chip
T1 construct: also called hFcRn
Protocol: (§1) Antibodies were passed over the chip with increasing concentrations at a flow rate of 30 μl/min and at 25° C. The injection time was 40 s per concentration and the dissociation time was 75 s. […] Interactions were analysed using a steady state model (see FIGS. 19a to 19d for example data).

[2] = target: T2, HMW-MAA (high molecular weight-melanoma associated antigen) on A375 cells (UniProt Q6UVK1 30-2322); assay: flow cytometry on A375 cells, FITC goat anti-human IgG secondary
T2 construct: whole, on cells; also called CSPG4; chondroitin sulfate proteoglycan 4
Protocol: (§2) A375 cells were cultured using standard methods. When A375 cells were confluent, the cells were harvested. In brief, cells were washed with PBS before incubation with TrypLE™ at 37° C. for 10 minutes to detach the cells from the flask. Cells were resuspended in 10 mL of media and centrifuged for 3 minutes at 250 g. Cells were then resuspended in 1 mL FACS buffer and counted on the Cellometer® to determine the cell number and viability. Following this, cells were diluted to 1×10⁶ cells per mL with FACS buffer, and 100 μL of this cell suspension plated per well on a plate.
(§3) Binding of purified IGEGs to A375 cells (ATCC, Virginia, US) was assessed by flow cytometry using a Attune® NxT Acoustic Focusing Cytometer running Attune Software V3.1.2 (ThermoFisher Scientific, Loughborough, UK). […] Cells were washed and resuspended in FACS buffer and then acquired on the Attune® NxT Acoustic Focusing Cytometer. The data was analysed using FlowJo™ Software Version 10 (Becton, Dickinson and Company, New Jersey, US) and GraphPad Prism 8 (GraphPad Software, California, US).

[3] = target: T3, Human CD16A 176 Val (FcγRIIIA176Val), His-tagged (human, UniProt P08637 17-208); assay: SPR single cycle, steady state fit, His-tagged receptor captured, antibody as analyte
T3 construct: also called FcγRIIIA (CD16A); hFcγRIIIa 176V
Description: (§4) FcRs were captured on a CM5 sensor chip pre-coupled using a His capture kit (Cytiva, Uppsala, Sweden) using standard amine chemistry.
(§5) At the start of each cycle His-tagged Fc receptors diluted in HEPES buffered saline containing 0.05% v/v Surfactant P20 (HBS-P+) were loaded to a specified RU level (Table 7). A five point, three-fold dilution range of test antibody without regeneration between each concentration was used for each receptor tested. […] In all cases, antibodies were passed over the chip in increasing concentrations followed by a single dissociation step. Following dissociation, the chip was regenerated with two injections of Glycine pH 1.5. The signal from the reference channel Fc1 (blank) was subtracted from that of the Fc loaded with receptor to correct for differences in non-specific binding to the reference surface.

[4] = target: T4, Human CD16A 176 Phe (FcγRIIIA176Phe), His-tagged (human, UniProt P08637 17-208); assay: as above
T4 construct: also called hFcγRIIIa 176F
Description: as §4, §5

[5] = target: T5, Human CD16B (FcγRIIIB), His-tagged (human, UniProt O75015 17-200); assay: as above
T5 construct: also called hFcγRIIIb
Description: as §4, §5

[6] = target: T6, Human FcεRIα (Fc epsilon RI alpha), His-tagged (human, UniProt P12319 26-205); assay: SPR single cycle, 1:1 fit, His-tagged receptor captured, antibody as analyte
T6 construct: also called FceRIa; hFcεR1
T6 sequence (looked up): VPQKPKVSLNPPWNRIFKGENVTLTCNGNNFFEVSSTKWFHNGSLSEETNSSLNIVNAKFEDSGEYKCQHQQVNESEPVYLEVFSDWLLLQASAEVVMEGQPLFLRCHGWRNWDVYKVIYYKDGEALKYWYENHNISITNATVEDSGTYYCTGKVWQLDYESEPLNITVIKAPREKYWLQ
Description: as §4, §5

[7] = target: T7, Human CD64 (FcγRI), His-tagged (human, UniProt P12314 16-288); assay: as above
T7 construct: also called FcgRI; hFcγRI
Description: as §4, §5

[8] = target: T2, HMW-MAA (high molecular weight-melanoma …); assay: flow cytometry on A375 cells, FITC goat anti-human IgE secondary
Protocol: as §2, §3

[9] = target: T4, Human CD16A 176 Phe (FcγRIIIA176Phe), …; assay: SPR single cycle, His-tagged receptor captured, antibody as analyte
Description: as §4, §5

[10] = target: T5, Human CD16B (FcγRIIIB), His-tagged; assay: as above
Description: as §4, §5

[11] = target: T7, Human CD64 (FcγRI), His-tagged; assay: SPR (Biacore T200) single cycle kinetics, His-tagged FcγRI captured on anti-His chip, antibody as analyte 0.411-33.33 nM
Description: as §4, §5

[12] = target: T3, Human CD16A 176 Val (FcγRIIIA176Val), …; assay: SPR (Biacore T200) single cycle, His-tagged FcγRIIIA176Val captured on anti-His chip, antibody as analyte, raw sensorgrams
Description: as §4, §5

[13] = target: T1, Human FcRn (neonatal Fc receptor); assay: SPR (Biacore T200), hFcRn amine-coupled to CM5 chip, antibody as analyte 31.25-2000 nM, pH 6.0, raw sensorgrams
Protocol: as §1

[14] = target: T1, Human FcRn (neonatal Fc receptor); assay: SPR (Biacore T200), hFcRn amine-coupled to CM5 chip, antibody as analyte 31.25-2000 nM, pH 6.0, raw sensorgrams [Continued]
Protocol: as §1

T7 sequence (P12314 16-288 limits assumed): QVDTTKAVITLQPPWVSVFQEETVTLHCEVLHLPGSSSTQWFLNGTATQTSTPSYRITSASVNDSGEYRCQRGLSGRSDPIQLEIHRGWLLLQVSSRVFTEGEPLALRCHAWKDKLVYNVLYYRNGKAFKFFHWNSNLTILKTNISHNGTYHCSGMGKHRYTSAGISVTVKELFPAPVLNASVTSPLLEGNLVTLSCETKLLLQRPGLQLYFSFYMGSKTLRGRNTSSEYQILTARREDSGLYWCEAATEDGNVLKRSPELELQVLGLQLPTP
T1 sequence (P55899 24-297 limits assumed, chain 1 of 2): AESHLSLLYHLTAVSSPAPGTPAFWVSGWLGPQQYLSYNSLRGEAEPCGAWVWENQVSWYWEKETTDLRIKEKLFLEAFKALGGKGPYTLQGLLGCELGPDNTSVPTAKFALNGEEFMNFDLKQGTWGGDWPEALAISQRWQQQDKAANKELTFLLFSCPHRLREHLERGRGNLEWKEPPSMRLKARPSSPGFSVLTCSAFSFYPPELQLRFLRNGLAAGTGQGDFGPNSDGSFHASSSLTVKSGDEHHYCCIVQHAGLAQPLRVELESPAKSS
T1 sequence (P61769 21-119 limits assumed, chain 2 of 2): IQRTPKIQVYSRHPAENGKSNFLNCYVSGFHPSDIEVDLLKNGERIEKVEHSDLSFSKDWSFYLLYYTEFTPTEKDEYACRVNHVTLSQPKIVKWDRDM
T3 sequence (P08637 17-208 F176V limits assumed): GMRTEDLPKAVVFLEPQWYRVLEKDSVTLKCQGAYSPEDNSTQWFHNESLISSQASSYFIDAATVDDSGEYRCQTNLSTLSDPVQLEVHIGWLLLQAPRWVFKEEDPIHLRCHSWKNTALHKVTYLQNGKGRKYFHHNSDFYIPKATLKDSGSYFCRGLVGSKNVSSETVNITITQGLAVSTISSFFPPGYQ
T4 sequence (P08637 17-208 limits assumed): as the sequence (P08637 17-208 F176V limits assumed) above, with V160F counted along it
T5 sequence (O75015 17-200 limits assumed): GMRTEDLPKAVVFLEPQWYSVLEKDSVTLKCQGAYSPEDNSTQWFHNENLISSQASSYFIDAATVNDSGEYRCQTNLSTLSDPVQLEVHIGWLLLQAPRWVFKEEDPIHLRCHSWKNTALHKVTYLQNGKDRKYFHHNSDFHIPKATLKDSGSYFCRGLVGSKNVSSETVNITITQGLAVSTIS
T2 sequence (Q6UVK1 30-2322): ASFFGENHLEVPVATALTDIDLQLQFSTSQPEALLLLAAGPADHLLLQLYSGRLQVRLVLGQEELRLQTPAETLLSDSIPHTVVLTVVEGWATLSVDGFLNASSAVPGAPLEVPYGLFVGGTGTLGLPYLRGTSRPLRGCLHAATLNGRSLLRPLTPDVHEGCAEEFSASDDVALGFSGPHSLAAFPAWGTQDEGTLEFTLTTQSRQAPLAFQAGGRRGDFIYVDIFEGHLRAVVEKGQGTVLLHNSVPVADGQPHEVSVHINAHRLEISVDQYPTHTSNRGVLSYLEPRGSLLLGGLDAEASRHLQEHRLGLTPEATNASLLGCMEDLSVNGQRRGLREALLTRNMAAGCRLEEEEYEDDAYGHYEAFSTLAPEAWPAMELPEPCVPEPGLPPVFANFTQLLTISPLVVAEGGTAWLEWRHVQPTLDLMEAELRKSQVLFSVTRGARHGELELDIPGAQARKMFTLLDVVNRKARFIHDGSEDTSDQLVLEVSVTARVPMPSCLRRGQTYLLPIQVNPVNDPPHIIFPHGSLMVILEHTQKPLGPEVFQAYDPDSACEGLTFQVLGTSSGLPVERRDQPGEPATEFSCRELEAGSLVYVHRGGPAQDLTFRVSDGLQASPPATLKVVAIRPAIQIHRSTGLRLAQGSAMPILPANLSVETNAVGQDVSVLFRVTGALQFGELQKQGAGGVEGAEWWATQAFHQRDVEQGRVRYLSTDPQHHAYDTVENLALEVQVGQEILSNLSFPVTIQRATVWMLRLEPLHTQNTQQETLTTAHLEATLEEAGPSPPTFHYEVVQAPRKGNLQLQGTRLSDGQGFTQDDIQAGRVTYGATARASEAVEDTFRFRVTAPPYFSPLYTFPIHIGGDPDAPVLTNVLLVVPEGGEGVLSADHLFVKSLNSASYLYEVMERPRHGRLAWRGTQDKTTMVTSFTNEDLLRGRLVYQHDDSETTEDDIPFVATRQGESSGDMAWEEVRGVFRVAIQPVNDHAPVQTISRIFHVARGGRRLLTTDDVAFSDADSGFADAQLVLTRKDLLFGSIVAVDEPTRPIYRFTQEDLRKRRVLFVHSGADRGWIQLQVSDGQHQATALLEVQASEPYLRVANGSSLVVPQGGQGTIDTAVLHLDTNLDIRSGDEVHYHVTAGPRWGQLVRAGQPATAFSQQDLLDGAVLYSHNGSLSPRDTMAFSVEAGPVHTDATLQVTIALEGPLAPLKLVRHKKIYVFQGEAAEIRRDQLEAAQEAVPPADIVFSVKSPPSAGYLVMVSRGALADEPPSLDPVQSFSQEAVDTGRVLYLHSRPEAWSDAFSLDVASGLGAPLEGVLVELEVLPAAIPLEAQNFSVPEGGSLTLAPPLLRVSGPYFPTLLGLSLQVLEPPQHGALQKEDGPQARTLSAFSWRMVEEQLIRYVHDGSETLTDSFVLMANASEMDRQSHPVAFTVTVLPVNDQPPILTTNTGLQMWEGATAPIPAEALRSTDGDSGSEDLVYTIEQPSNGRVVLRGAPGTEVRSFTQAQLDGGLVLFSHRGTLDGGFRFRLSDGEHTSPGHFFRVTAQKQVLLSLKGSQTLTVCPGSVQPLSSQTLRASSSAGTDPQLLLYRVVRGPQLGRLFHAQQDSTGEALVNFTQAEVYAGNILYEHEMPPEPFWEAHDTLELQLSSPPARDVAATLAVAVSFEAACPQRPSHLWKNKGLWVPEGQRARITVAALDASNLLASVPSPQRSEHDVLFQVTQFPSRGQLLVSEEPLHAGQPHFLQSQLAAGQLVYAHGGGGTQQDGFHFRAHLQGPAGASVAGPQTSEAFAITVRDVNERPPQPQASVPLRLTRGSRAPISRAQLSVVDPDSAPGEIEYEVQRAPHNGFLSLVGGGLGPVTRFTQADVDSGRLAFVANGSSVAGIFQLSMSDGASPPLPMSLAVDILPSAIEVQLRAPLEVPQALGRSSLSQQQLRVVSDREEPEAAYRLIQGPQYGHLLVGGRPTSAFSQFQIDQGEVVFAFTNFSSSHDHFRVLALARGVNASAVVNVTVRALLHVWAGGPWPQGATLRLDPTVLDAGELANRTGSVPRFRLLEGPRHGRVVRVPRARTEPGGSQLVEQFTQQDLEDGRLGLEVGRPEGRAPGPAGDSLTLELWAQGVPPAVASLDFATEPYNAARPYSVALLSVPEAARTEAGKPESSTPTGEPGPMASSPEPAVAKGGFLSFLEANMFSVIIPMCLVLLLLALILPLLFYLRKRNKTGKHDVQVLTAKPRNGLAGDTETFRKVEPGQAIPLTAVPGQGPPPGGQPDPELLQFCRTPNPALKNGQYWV

| Binder | Kd [1] [nM] | binding result [2] | Kd [3] [nM] | Kd [4] [nM] | Kd [5] [nM] | Kd [6] [nM] | Kd [7] [nM] | binding result [8] | binding result [9] | binding result [10] | binding result [11] | binding result [12] | binding result [13] | binding result [14] |
| --- | --- | --- | --- | --- | --- | --- | --- | --- | --- | --- | --- | --- | --- | --- |
| HMW-MAA_IGEG (HMW-MAA IgE IgG-Fc) (antibody, also called CH IGEG) heavy: not shown light: DIQLTQSPSFLSASVGDRVTITCKASQNVDTNVAWYQQKPGKAPKPLLFSASYRYTGVPSRFSGSGSGTDFTLTISSLQPEDFATYFCQQYNSYPLTFGGGTKVEIKRTVAAPSVFIFPPSDEQLKSGTASVVCLLNNFYPREAKVQWKVDNALQSGNSQESVTEQDSKDSTYSLSSTLTLSKADYEKHKVYACEVTHQGLSSPVTKSFNRGEC | 1020 | binds | 386 | 665 | 1480 | 0.599 | 1.63 | – | – | – | – | – | – | – |
| HMW-MAA_IgE (antibody, also called HMW-MAA IgE-WT; anti-HMW-MAA IgE) heavy: EVQLVQSGGGLVQPGGSLKLSCAVSGFTFSNYWMNWVRQAPGKGLEWVGEIRLKSNNFGRYYAESVKGRFTISRDDSKNTAYLQMNSLKTEDTAVYYCTSYGNYVGHYFDHWGQGTLVTVSSASTQSPSVFPLTRCCKNIPSNATSVTLGCLATGYFPEPVMVTWDTGSLNGTTMTLPATTLTLSGHYATISLLTVSGAWAKQMFTCRVAHTPSSTDWVDNKTFSVCSRDFTPPTVKILQSSCDGGGHFPPTIQLLCLVSGYTPGTINITWLEDGQVMDVDLSTASTTQEGELASTQSELTLSQKHWLSDRTYTCQVTYQGHTFEDSTKKCADSNPRGVSAYLSRPSPFDLFIRKSPTITCLVVDLAPSKGTVNLTWSRASGKPVNHSTRKEEKQRNGTLTVTSTLPVGTRDWIEGETYQCRVTHPHLPRALMRSTTKTSGPRAAPEVYAFATPEWPGSRDKRTLACLIQNFMPEDISVQWLHNEVQLPDARHSTTQPRKTKGSGFFVFSRLEVTRAEWEQKDEFICRAVHEAASPSQTVQRAVSVNPGK light: DIQLTQSPSFLSASVGDRVTITCKASQNVDTNVAWYQQKPGKAPKPLLFSASYRYTGVPSRFSGSGSGTDFTLTISSLQPEDFATYFCQQYNSYPLTFGGGTKVEIKRTVAAPSVFIFPPSDEQLKSGTASVVCLLNNFYPREAKVQWKVDNALQSGNSQESVTEQDSKDSTYSLSSTLTLSKADYEKHKVYACEVTHQGLSSPVTKSFNRGEC | – | – | – | – | – | 0.508 | – | binds | no binding (tested: 8000 nM) | no binding (tested: 8000 nM) | no binding (tested: 33.33 nM) | no binding (tested: 3e-6 M (top point of FIG. 17D)) | no binding (tested: 2000 nM) | – |
| HMW-MAA_IGEG-C220S-dFcRn (antibody) heavy: EVQLVQSGGGLVQPGGSLKLSCAVSGFTFSNYWMNWVRQAPGKGLEWVGEIRLKSNNFGRYYAESVKGRFTISRDDSKNTAYLQMNSLKTEDTAVYYCTSYGNYVGHYFDHWGQGTLVTVSSASTQSPSVFPLTRCCKNIPSNATSVTLGCLATGYFPEPVMVTWDTGSLNGTTMTLPATTLTLSGHYATISLLTVSGAWAKQMFTCRVAHTPSSTDWVDNKTFSVCSRDFTPPTVKILQSSCDGGGHFPPTIQLLCLVSGYTPGTINITWLEDGQVMDVDLSTASTTQEGELASTQSELTLSQKHWLSDRTYTCQVTYQGHTFEDSTKKCADSNPRGVSAYLSRPSPFDLFIRKSPTITCLVVDLAPSKGTVNLTWSRASGKPVNHSTRKEEKQRNGTLTVTSTLPVGTRDWIEGETYQCRVTHPHLPRALMRSTTKTSGPRAAPEVYAFATPEWPGSRDKRTLACLIQNFMPEDISVQWLHNEVQLPDARHSTTQPRKTKGSGFFVFSRLEVTRAEWEQKDEFICRAVHEAASPSQTVQRAVSVNPGKRSEPKSSDKTHTCPPCPAPELLGGPSVFLFPPKPKDTLMASRTPEVTCVVVDVSHEDPEVKFNWYVDGVEVHNAKTKPREEQYNSTYRVVSVLTVLAQDWLNGKEYKCKVSNKALPAPIEKTISKAKGQPREPQVYTLPPSREEMTKNQVSLTCLVKGFYPSDIAVEWESNGQPENNYKTTPPVLDSDGSFFLYSKLTVDKSRWQQGNVFSCSVMHEALHNAYTQKSLSLSPGK light: DIQLTQSPSFLSASVGDRVTITCKASQNVDTNVAWYQQKPGKAPKPLLFSASYRYTGVPSRFSGSGSGTDFTLTISSLQPEDFATYFCQQYNSYPLTFGGGTKVEIKRTVAAPSVFIFPPSDEQLKSGTASVVCLLNNFYPREAKVQWKVDNALQSGNSQESVTEQDSKDSTYSLSSTLTLSKADYEKHKVYACEVTHQGLSSPVTKSFNRGEC | – | binds | 601 | 1160 | 2780 | 0.535 | 2.18 | – | – | – | – | – | – | no binding (tested: 2000 nM) |
| HMW-MAA_IGEG-dFcRn (antibody, human IgG1, kappa) heavy: EVQLVQSGGGLVQPGGSLKLSCAVSGFTFSNYWMNWVRQAPGKGLEWVGEIRLKSNNFGRYYAESVKGRFTISRDDSKNTAYLQMNSLKTEDTAVYYCTSYGNYVGHYFDHWGQGTLVTVSSASTQSPSVFPLTRCCKNIPSNATSVTLGCLATGYFPEPVMVTWDTGSLNGTTMTLPATTLTLSGHYATISLLTVSGAWAKQMFTCRVAHTPSSTDWVDNKTFSVCSRDFTPPTVKILQSSCDGGGHFPPTIQLLCLVSGYTPGTINITWLEDGQVMDVDLSTASTTQEGELASTQSELTLSQKHWLSDRTYTCQVTYQGHTFEDSTKKCADSNPRGVSAYLSRPSPFDLFIRKSPTITCLVVDLAPSKGTVNLTWSRASGKPVNHSTRKEEKQRNGTLTVTSTLPVGTRDWIEGETYQCRVTHPHLPRALMRSTTKTSGPRAAPEVYAFATPEWPGSRDKRTLACLIQNFMPEDISVQWLHNEVQLPDARHSTTQPRKTKGSGFFVFSRLEVTRAEWEQKDEFICRAVHEAASPSQTVQRAVSVNPGKRSEPKSCDKTHTCPPCPAPELLGGPSVFLFPPKPKDTLMASRTPEVTCVVVDVSHEDPEVKFNWYVDGVEVHNAKTKPREEQYNSTYRVVSVLTVLAQDWLNGKEYKCKVSNKALPAPIEKTISKAKGQPREPQVYTLPPSREEMTKNQVSLTCLVKGFYPSDIAVEWESNGQPENNYKTTPPVLDSDGSFFLYSKLTVDKSRWQQGNVFSCSVMHEALHNAYTQKSLSLSPGK light: DIQLTQSPSFLSASVGDRVTITCKASQNVDTNVAWYQQKPGKAPKPLLFSASYRYTGVPSRFSGSGSGTDFTLTISSLQPEDFATYFCQQYNSYPLTFGGGTKVEIKRTVAAPSVFIFPPSDEQLKSGTASVVCLLNNFYPREAKVQWKVDNALQSGNSQESVTEQDSKDSTYSLSSTLTLSKADYEKHKVYACEVTHQGLSSPVTKSFNRGEC | – | binds | 535 | 960 | 2030 | 0.556 | 2.02 | – | – | – | – | – | – | no binding (tested: 2000 nM) |
| HMW-MAA_IGEG-C220S (HMW-MAA IgE-IgG-Fc C220S) (antibody) heavy: not shown light: DIQLTQSPSFLSASVGDRVTITCKASQNVDTNVAWYQQKPGKAPKPLLFSASYRYTGVPSRFSGSGSGTDFTLTISSLQPEDFATYFCQQYNSYPLTFGGGTKVEIKRTVAAPSVFIFPPSDEQLKSGTASVVCLLNNFYPREAKVQWKVDNALQSGNSQESVTEQDSKDSTYSLSSTLTLSKADYEKHKVYACEVTHQGLSSPVTKSFNRGEC | 1050 | binds | 400 | 775 | 1870 | 0.493 | 1.67 | – | – | – | – | – | – | – |
